The record followed here is PMC6144812.

Substitutions are numbered along the chain they refer to.

What all share (test): EMSA
The target of data set [1] is T1, nPfh1 (nuclear isoform, wild-type) (Schizosaccharomyces pombe, UniProt Q9UUA2-2 1-785).
T1 sequence: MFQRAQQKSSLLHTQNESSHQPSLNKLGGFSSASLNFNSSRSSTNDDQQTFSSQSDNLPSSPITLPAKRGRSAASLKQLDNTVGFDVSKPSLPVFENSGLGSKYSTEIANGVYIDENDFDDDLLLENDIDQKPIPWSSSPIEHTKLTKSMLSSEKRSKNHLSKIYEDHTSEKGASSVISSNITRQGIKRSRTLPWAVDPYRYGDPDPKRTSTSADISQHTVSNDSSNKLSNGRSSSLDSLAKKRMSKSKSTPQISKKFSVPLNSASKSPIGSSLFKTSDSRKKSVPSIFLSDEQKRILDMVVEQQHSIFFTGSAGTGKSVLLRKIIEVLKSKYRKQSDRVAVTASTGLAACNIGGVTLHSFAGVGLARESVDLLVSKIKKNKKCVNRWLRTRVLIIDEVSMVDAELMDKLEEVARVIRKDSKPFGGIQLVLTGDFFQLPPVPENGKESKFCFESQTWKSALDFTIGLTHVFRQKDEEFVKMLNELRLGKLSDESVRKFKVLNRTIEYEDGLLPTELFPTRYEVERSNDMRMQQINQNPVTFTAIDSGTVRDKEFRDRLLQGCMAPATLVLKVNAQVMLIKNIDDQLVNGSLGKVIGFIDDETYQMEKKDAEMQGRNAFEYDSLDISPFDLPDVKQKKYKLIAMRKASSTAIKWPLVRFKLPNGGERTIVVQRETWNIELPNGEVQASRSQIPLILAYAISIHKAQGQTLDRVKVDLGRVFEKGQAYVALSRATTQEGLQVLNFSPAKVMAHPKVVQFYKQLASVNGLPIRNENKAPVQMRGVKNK

Data set [2] concerns the target T2, nPfh1-Δ21 (Schizosaccharomyces pombe, UniProt Q9UUA2-2 1-785, del408-428).
T2 sequence: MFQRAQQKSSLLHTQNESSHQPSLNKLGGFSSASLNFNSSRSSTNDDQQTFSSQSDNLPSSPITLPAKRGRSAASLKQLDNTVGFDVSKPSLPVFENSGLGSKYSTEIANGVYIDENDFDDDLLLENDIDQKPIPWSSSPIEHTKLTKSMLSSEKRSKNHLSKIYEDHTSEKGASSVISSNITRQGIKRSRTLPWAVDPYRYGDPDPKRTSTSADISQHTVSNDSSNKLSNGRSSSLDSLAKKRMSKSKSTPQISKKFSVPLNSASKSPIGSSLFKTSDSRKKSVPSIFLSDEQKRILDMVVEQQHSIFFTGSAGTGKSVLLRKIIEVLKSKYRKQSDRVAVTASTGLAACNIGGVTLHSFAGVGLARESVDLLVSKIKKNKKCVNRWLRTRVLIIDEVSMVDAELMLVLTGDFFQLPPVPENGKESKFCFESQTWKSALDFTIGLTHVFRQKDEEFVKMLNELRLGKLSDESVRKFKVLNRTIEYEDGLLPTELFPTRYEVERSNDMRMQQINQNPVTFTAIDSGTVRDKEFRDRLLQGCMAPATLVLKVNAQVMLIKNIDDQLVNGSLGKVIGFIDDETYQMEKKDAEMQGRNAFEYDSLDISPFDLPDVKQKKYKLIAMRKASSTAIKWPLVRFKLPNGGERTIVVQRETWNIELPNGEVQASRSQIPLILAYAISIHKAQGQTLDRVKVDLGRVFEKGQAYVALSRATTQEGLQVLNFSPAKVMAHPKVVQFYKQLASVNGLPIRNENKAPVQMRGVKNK

The target of data set [3] is T3, nPfh1-L430P (Schizosaccharomyces pombe, UniProt Q9UUA2-2 1-785, L410P).
T3 sequence: T1 sequence with L410P

The target in data set [4] is T4, nPfh1-L430A (Schizosaccharomyces pombe, UniProt Q9UUA2-2 1-785, L410A).
T4 sequence: T1 sequence with L410A

B1: 3'-5' DNA/DNA partial duplex (dsDNA)
DNA 1: TCGATGGTACGGACGTGCTTAAAGAAAAAAAAAA
DNA 2: TCGATGGTACGGACGTGCTTAA
B1: the binding result in data set [1] is “no binding”.

B2: Y-fork (dsDNA)
DNA 1: AAAAAAAAAAGATTAAGCACGTCCGTACCATCGA
DNA 2: B1 DNA 1
As for B2, the binding signal in data set [2], in data set [3] and in data set [4] was below 5 % bound each time.

B3: Duplex DNA/DNA (dsDNA)
DNA 1: TTAAGCACGTCCGTACCATCGA
DNA 2: TCGATGGTACGGACGTGCTTAA
As to B3, the binding result in data set [1] is reported as “no binding”.
